{"source": "patent US11708423B2", "about": "“Chimeric engulfment receptor molecules and methods of use” (CERO THERAPEUTICS, INC., priority 2017, dated 2023)", "molecules": {"B1": {"name": "CER123: Tim4 binding and transmembrane domains, TLR2 primary and TRAF6 secondary signaling domains; SEQ ID NO:150 (protein)", "chain": "MSKGLLLLWLVTELWWLYLTPAASEDTIIGFLGQPVTLPCHYLSWSQSRNSMCWGKGSCPNSKCNAELLRTDGTRIISRKSTKYTLLGKVQFGEVSLTISNTNRGDSGVYCCRIEVPGWFNDVKKNVRLELRRATTTKKPTTTTRPTTTPYVTTTTPELLPTTVMTTSVLPTTTPPQTLATTAFSTAVTTCPSTTPGSFSQETTKGSAFTTESETLPASNHSQRSMMTISTDIAVLRPTGSNPGILPSTSQLTTQKTTLTTSESLQKTTKSHQINSRQTILIIACCVGFVLMVLLFLAFLHRFHGLWYMKMMWAWLQAKRKPRKAPSRNICYDAFVSYSERDAYWVENLMVQELENFNPPFKLCLHKRDFIPGKWIIDNIIDSIEKSHKTVFVLSENFVKSEWCKYELDFSHFRLFDENNDAAILILLEPIEKKAIPQRFCKLRKIMNTKTYLEWPMDEAQREGFWVNLRAAIKSMSLLNCENSCGSSQSESDCCVAMASSCSAVTKDDSVGGTASTGNLSSSFMEEIQGYDVEFDPPLESKYECPICLMALREAVQTPCGHRFCKACIIKSIRDAGHKCPVDNEILLENQLFPDNFAKREILSLMVKCPNEGCLHKMELRHLEDHQAHCEFALMDCPQCQRPFQKFHINIHILKDCPRRQVSCDNCAASMAFEDKEIHDQNCPLANVICEYCNTILIREQMPNHYDLDCPTAPIPCTFSTFGCHEKMQRNHLARHLQENTQSHMRMLA", "modifications": "CER123 protein"}, "B2": {"name": "CER122: Tim4 binding and transmembrane domains, TLR2 primary and DAP12 secondary signaling domains; SEQ ID NO:149 (protein)", "chain": "MSKGLLLLWLVTELWWLYLTPAASEDTIIGFLGQPVTLPCHYLSWSQSRNSMCWGKGSCPNSKCNAELLRTDGTRIISRKSTKYTLLGKVQFGEVSLTISNTNRGDSGVYCCRIEVPGWFNDVKKNVRLELRRATTTKKPTTTTRPTTTPYVTTTTPELLPTTVMTTSVLPTTTPPQTLATTAFSTAVTTCPSTTPGSFSQETTKGSAFTTESETLPASNHSQRSMMTISTDIAVLRPTGSNPGILPSTSQLTTQKTTLTTSESLQKTTKSHQINSRQTILIIACCVGFVLMVLLFLAFLHRFHGLWYMKMMWAWLQAKRKPRKAPSRNICYDAFVSYSERDAYWVENLMVQELENFNPPFKLCLHKRDFIPGKWIIDNIIDSIEKSHKTVFVLSENFVKSEWCKYELDFSHFRLFDENNDAAILILLEPIEKKAIPQRFCKLRKIMNTKTYLEWPMDEAQREGFWVNLRAAIKSYFLGRLVPRGRGAAEAATRKQRITETESPYQELQGQRSDVYSDLNTQRPYYK", "modifications": "CER122 protein"}, "B3": {"name": "CER21: Tim4 binding and transmembrane domains, TLR8 signaling domain; SEQ ID NO:88 (protein)", "chain": "MSKGLLLLWLVTELWWLYLTPAASEDTIIGFLGQPVTLPCHYLSWSQSRNSMCWGKGSCPNSKCNAELLRTDGTRIISRKSTKYTLLGKVQFGEVSLTISNTNRGDSGVYCCRIEVPGWFNDVKKNVRLELRRATTTKKPTTTTRPTTTPYVTTTTPELLPTTVMTTSVLPTTTPPQTLATTAFSTAVTTCPSTTPGSFSQETTKGSAFTTESETLPASNHSQRSMMTISTDIAVLRPTGSNPGILPSTSQLTTQKTTLTTSESLQKTTKSHQINSRQTILIIACCVGFVLMVLLFLAFLHHLFYWDVWFIYNVCLAKVKGYRSLSTSQTFYDAYISYDTKDASVTDWVINELRYHLEESRDKNVLLCLEERDWDPGLAIIDNLMQSINQSKKTVFVLTKKYAKSWNFKTAFYLALQRLMDENMDVIIFILLEPVLQHSQYLRLRQRICKSSILQWPDNPKAEGLFWQTLRNVVLTENDSRYNNMYVDSIKQY", "modifications": "CER21 chimeric engulfment receptor"}}, "key": {"HPV E7 oncoproteins": {"tested_on": "HPV E7 oncoproteins", "assay": "Antigen cross-presentation, E6/E7 TCR NFAT-luciferase Jurkat reporter", "assay_type": "cell-based, human", "conditions": "CD4+ and CD8+ T cells after phagocytosis of SCC152 HPV+ cells, compared to mock", "text": "CD4+ and CD8+CER-expressing T cell lines were established from human PBMCs. Purified T cells were transduced with lentivirus encoding CER123 (SEQ ID NO:150) and truncated EGFR (transduction marker), after activation with CD3 & CD28 microbeads, and then expanded in medium containing IL-7, IL-15, and IL-2 for 5 days. The percentage of tEGFR+ T cells ranged between 40-60%.\nA Jurkat cell line with a stable integration of an NFAT-inducible Luciferase reporter construct was utilized to study T cell responses. Human E6- and E7-specific engineered TCRs were transduced into Jurkat NFAT reporter cell lines to characterize NFAT activation upon co-culture with engineered CERs.\nFor assessing MHC-I cross-presentation, SCC152 HPV^+ cells were co-cultured overnight with CER123-expressing CD4+ and CD8+ T cells or mock-transduced (vector only) T cells in the presence of T cells expressing an E7-specific TCR. […] NFAT activation was assessed at serial time points (0, 6, 12, 24, and 72 hrs) by measuring luciferase activity in cell culture supernatants. […] Induction of E711-19 —specific Jurkat T cells were quantified by luminescence of NFAT signaling at indicated time points and compared to Mock (vector-alone) transduced T cells (FIG. 87)."}, "H1975 NSCLC cells": {"tested_on": "H1975 NSCLC cells", "assay": "Phagocytosis of Osimeritinib-treated H1975 cells by CER122 T cells", "assay_type": "cell-based", "conditions": "500 nM osimeritinib, 12 hours, CD4+ T cells", "procedure": "H1975 NSCLC cells were treated with 500 nM Osimeritinib and then labeled with pH-rodo red, a pH sensing dye, to indicate localization to low-pH retaining endosomes. CD4+ T cells were transduced with a lentiviral vector comprising a CER122 nucleic acid and tEGFR nucleic acid (transduction marker). CER122 has a polypeptide sequence as set forth in SEQ ID NO:149 and comprises a Tim4 binding domain, Tim4 transmembrane domain, and an engulfment signaling domain comprising a primary engulfment signaling domain comprising a TLR2 signaling domain and a secondary engulfment signaling domain comprising a DAP12 signaling domain. CER122-transduced T cells labeled with CELLTRACE Violet were co-cultured with Osimeritinib-treated H1975 NSCLC cells. Fluorescent microscopy images (40X) were obtained 12 hours after co-culture of H1975 cells and CER-expressing T cells (FIG. 47, top left panel). […] Phagocytic events can be visualized as pHrodo red targets within CELLTRACE Violet labeled T cells. An enlargement of phagocytosis of pHrodo red labeled H1975 cells by CELLTRACE Violet labeled CER122-modified T cells is shown in the bottom panel of FIG. 47, with white arrows indicating phagocytic events."}, "[1]": {"tested_on": "staurosporine treated Jurkat cells", "assay": "Phagocytosis and cytolysis of staurosporine treated Jurkat cells by CER21+ human primary B cells", "assay_type": "cell-based", "procedure": "One day prior to setting up the phagocytosis assay, Jurkat human B lymphocytes were cultured in complete RPMI 1640 growth media supplemented with 10% fetal bovine serum and 1% penicillin-streptomycin in a 6 well plate and treated with 1 mM staurosporine for three hours to induce apoptosis. Jurkat cells were washed twice in lx PBS to remove excess staurosporine and then stained with pHrodo Red (1 ng/μ.1 in PBS) for 15 minutes at room temperature. The Jurkat cells were supplemented with growth media, washed once to remove excess pHrodo Red, and plated on flat bottom 96 well plates at approximately 250,000 cells/well in RPMI 1640 complete media.\nTransduced CER21+ human primary B cells were washed once with 1×PBS and stained with 1 μM CELLTRACE Violet in PBS for 10 minutes at 37° C. The CER21+ human primary B cells were supplemented with growth media, washed once with 1×PBS to remove excess CELLTRACE Violet, and plated onto 96 well plate at approximately 50,000 cells/well in RPMI 1640 complete media. Human CER21+primary B cells and Jurkat cells were co-cultured at a target cell to effector cell ratio of 5:1 at 37° C. for 3 hours. After incubation, the co-culture plate was then centrifuged, and the media replaced with PBS supplemented with 2% fetal bovine serum, pH 9. Phagocytic events were quantified by fluorescent microscopy (KEYENCE BZ-X710 fluorescence microscope, 20X objective). […] Solid arrows show engulfment activity. Dashed arrows show cytolytic activity.\nApoptotic cells were quantified from fluorescent images using automated software, and the number of apoptotic cells per high power view (FIG. 20A) and total fluorescence emission per high power view (FIG. 20B) were calculated using pH indicator dye."}, "[2]": {"conditions": "human primary B cells, target:effector 5:1, 3 hours"}}, "data": [{"molecule": "B1", "values": [{"measurement": "cross-presentation of HPV E7 oncoproteins (NFAT activation)", "setting": "HPV E7 oncoproteins", "value": "enhanced cross-presentation efficiency of HPV E7 oncoproteins"}]}, {"molecule": "B2", "values": [{"measurement": "phagocytosis of H1975 cells", "setting": "H1975 NSCLC cells", "value": "phagocytic elimination of EGFR-mutated NSCLC cells"}]}, {"molecule": "B3", "values": [{"measurement": "in vitro cytolysis of engulfed Jurkat cells", "setting": "[1]; [2]", "value": "in vitro cytolysis of Jurkat cells"}, {"measurement": "in vitro phagocytosis of Jurkat cells", "setting": "[1]; [2]", "value": "in vitro phagocytosis"}, {"measurement": "killing of target cells (apoptotic cells and fluorescence per high power view)", "setting": "[1]; staurosporine treated (subtherapeutic dose) Jurkat cells", "value": "enhanced killing of target cells"}]}]}
